Each block holds one binder with its values, some of them ahead of it.
How the values were obtained:
human TL1A [1] = target: T1, human TL1A (human, UniProt O95150 72-251); experiment: SPR, representative sensorgram with Human TL1A
T1 construct: Antigen in SPR and ELISA; Also used here for places that print only 'TL1A' and for endogenous TL1A in human whole blood; also called TNFSF15
T1 sequence (looked up): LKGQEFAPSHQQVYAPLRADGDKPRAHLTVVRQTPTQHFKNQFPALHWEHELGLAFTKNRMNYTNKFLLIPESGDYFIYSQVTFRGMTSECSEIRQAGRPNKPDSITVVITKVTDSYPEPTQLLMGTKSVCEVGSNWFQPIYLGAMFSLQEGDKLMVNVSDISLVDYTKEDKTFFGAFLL

Cyno TL1A [2] = target: T2, Cyno TL1A (cyno, UniProt G7PRK8 72-251); experiment: SPR, mAb format, average
T2 sequence: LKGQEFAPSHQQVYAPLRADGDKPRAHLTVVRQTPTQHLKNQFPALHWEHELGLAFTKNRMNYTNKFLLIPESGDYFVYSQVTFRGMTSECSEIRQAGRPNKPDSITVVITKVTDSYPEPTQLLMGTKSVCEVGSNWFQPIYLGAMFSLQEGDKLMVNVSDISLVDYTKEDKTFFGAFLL

human TL1A [3] = target: T1, human TL1A; experiment: SPR, mAb format, average
mouse TL1A = target: T3, mouse TL1A (mouse, UniProt Q5UBV8 76-252, limits assumed); experiment: SPR, mAb format, average
T3 sequence (looked up): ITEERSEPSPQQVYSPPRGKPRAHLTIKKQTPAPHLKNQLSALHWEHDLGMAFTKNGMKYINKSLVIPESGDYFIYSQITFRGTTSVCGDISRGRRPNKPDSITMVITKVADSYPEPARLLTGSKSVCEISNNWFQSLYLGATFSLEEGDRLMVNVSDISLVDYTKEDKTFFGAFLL

human TL1A [4] = target: T1, human TL1A; experiment: SPR, mAb format, average; remark: listed apart in the source
human TL1A [5] = target: T1, human TL1A; experiment: SPR, mAb format, average; remark: listed apart in the source
Cyno TL1A [6] = target: T2, Cyno TL1A; experiment: SPR, representative sensorgram with Cyno TL1A
FcRn [7] = target: T4, FcRn (UniProt P55899 24-297; P61769 21-119); experiment: SPR, representative sensorgram with FcRn, pH 6.0
T4 construct: also called neonatal receptor

FcRn [8] = target: T4, FcRn; experiment: SPR, mAb format, FcRn at pH 6.0, average
human TL1A [9] = target: T1, human TL1A; experiment: selectivity ELISA: antibody pre-incubated with TL1A, inhibition of TL1A binding to plate-coated DR3
human TL1A [10] = target: T1, human TL1A; experiment: selectivity ELISA: antibody pre-incubated with TL1A, inhibition of TL1A binding to plate-coated DcR3
human TL1A [11] = target: T1, human TL1A; experiment: SPR, affinity capture of Fab, average

- Kd (human TL1A [1]): < 0.044 nM
- Kd (Cyno TL1A [2]): 0.032 nM
- Kd (human TL1A [3]): 0.044 nM
- Kd (mouse TL1A): 117 nM
- Kd (human TL1A [4]): 0.044 nM
- Kd (human TL1A [5]): 0.044 nM
- Kd (Cyno TL1A [6]): < 0.031 nM
- Kd (FcRn [7]): 14 nM
- Kd (FcRn [8]): 16 nM
B1: Antibody 3 (mAb format) (antibody, human IgG1, kappa, N297A)
heavy: QVQLQESGPGLVRPSQTLSLTCTVSGFDIQDTYMHWVRQRPGRGLEWMGRIEPAGGHTKYNPSLKSRVTITRDTSKNQVSLRLSSVTAADTAVYYCVRSGGLPDAWGQGSLVTVSSASTKGPSVFPLAPSSKSTSGGTAALGCLVKDYFPEPVTVSWNSGALTSGVHTFPAVLQSSGLYSLSSVVTVPSSSLGTQTYICNVNHKPSNTKVDKKVEPKSCDKTHTCPPCPAPELLGGPSVFLFPPKPKDTLMISRTPEVTCVVVDVSHEDPEVKFNWYVDGVEVHNAKTKPREEQYASTYRVVSVLTVLHQDWLNGKEYKCKVSNKALPAPIEKTISKAKGQPREPQVYTLPPSRDELTKNQVSLTCLVKGFYPSDIAVEWESNGQPENNYKTTPPVLDSDGSFFLYSKLTVDKSRWQQGNVFSCSVLHEALHSHYTQKSLSLSPGK
light: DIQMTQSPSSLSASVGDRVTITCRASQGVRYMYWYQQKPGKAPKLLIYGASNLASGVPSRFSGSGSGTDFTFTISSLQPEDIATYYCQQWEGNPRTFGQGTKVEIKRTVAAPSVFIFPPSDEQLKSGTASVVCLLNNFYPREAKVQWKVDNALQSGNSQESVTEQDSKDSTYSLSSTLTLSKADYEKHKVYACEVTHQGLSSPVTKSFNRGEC
notes: also called high priority lead mAb

- IC50 (human TL1A [9]): 2.6 µg/mL
- IC50 (human TL1A [10]): 0.7 µg/mL
B2: TEV-48574 (antibody, V domains shown)
VH: QVQLVQSGAEVKKPGASVKVSCKASGYTFTSYDINWVRQAPGQGLEWMGWLNPNSGYTGYAQKFQGRVTMTADRSTSTAYMELSSLRSEDTAVYYCAREVPETAAFEYWGQGTLVTVSS
VL: QSVLTQPPSVSGAPGQRVTISCTSSSSDIGAGLGVHWYQQLPGTAPKLLIEGYYNRPSGVPDRFSGSKSGTSASLTITGLLPEDEGDYYCQSWDGTLSALFGGGTKLTVLR

- Kd (human TL1A [11]): 5.71 nM
B3: Heron2B-Toci (Fab, V domains shown)
VH: QVQLQESGPGLVRPSQTLSLTCTVSGFDIQDTYMHWVRQRPGRGLEWMGRIDPASGHTKYNPSLKSRVTITRDTSKNQVSLRLSSVTAADTAVYYCARSGGLPDVWGQGSLVTVSS
VL: DIQMTQSPSSLSASVGDRVTITCRASSSVSYMYWYQQKPGKAPKLLIYATSNLASGVPSRFSGSGSGTDFTFTISSLQPEDIATYYCQQWEGNPRTFGQGTKVEIK
notes: also called Heron2B-toci parent
